Consider two molecules from US20180105597A1 (Eli Lilly, published 2018).

Assay [1] addresses T1, TGFβ RII AP (UniProt P37173 23-166). Briefly: ligand blocking ELISA, TGFβ RII AP binding to coated TGFβ ligand 1 (competitor). How it is done: (§1) A serial dilution of purified antibodies was incubated with TGFβ RII AP for 1 h in TGFβ-coated plates. After wash, p-nitrophenyl phosphate substrate was added to the wells for color development. The values of absorbance at 405 nm were read on a microtiter plate reader (Molecular Devices Corp) for the quantification of TGFβ RII binding to TGFβ. IC50 of the antibodies was analyzed using GraphPad Prism.

Assay [2] addresses T1, TGFβ RII AP. Briefly: ligand blocking ELISA, TGFβ RII AP binding to coated TGFβ ligand 2 (competitor). On the procedure:
as §1
On the technique in general: ELISA stands for enzyme-linked immunosorbent assay.

In assay [3] the target is T2, huTGFβ RIIFc (recombinant extracellular domain of human TGFβ RII fused to Fc) (human, UniProt P37173 23-166).
T2 construct: The Fc is not described; also called human TGFβ RIIFc; not shown: Fc part
The assay is described as follows: SPR (Biacore), TGFβ RII-Fc extracellular domain immobilized at low density; LY3022859; KD. How it is done: (§2) The association (kon) and dissociation (koff) rates were determined using BIAevaluation 2.1 software.

The target in assay [4] is T2, huTGFβ RIIFc (recombinant extracellular …). Briefly: ELISA, huTGFβ RIIFc coated, antibody titrated; LY3022859; binding ELISA. How it is done: (§3) For binding assays, huTGFβ RIIFc was coated on microplates. […] After washing, plates were incubated with HRP-labelled goat anti-rat Fab detection antibody and subsequently TMB peroxidase substrate was added to the wells for color development. The values of absorbance at 405 nm were read on a microtiter plate reader (Molecular Devices Corp). EC₅₀ of the antibodies was analyzed using GraphPad Prism.

Assay [5] deals with T1, TGFβ RII AP. Briefly: ligand blocking ELISA, TGFβ RII AP binding to coated TGFβ ligand 3 (competitor). How it is done: as §1
The target in the next assay is T3, FcγR1 (human, UniProt P12314 16-288).
T3 construct: also called human Fc-gamma receptor 1
Briefly: solid phase binding assay (Meso Scale), receptor coated, antibody titrated. On the procedure:
(§4) Receptor protein (50 ng/well) was added to the wells of a Meso Scale standard bare plate in PBS. […] The plates were washed three times in PBS/0.05% Tween-20. Stock solutions of all antibodies were prepared at 0.5 mg/mL in 1% MSD blocker A in PBS-Tween and serially diluted 1:3. The indicated antibodies were added to each reaction well. Recombinant protein and antibodies were incubated for 2 hours at room temperature and then the plates were washed 2 times with PBS/0.05% Tween. Secondary antibody was added to each well. After one hour at room temperature with agitation followed by 40 mins at room temperature, the plates were washed 2 times with PBS/0.05% Tween-20. For detection, 150 μL of a 1× Read Buffer (MSD cat # R92TC-1, 4×) were added to each well. The plate was then read using a Sector Imager 2400.

The next assay concerns the target T4, FcγR2a(H) (human, UniProt P12318 36-218).
T4 construct: also called human Fc-gamma receptor 2a, H form
T4 sequence (looked up): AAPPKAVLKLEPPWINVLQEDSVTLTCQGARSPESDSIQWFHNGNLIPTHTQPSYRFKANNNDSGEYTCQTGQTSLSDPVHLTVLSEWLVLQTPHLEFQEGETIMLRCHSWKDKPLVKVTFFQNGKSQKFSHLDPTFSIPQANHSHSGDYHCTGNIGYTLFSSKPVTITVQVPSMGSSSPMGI
The assay is described as above. On the procedure: as §4

The next assay concerns the target T5, FcγR3a (V) (human, UniProt P08637 17-208).
T5 construct: V158 allotype as printed
Described as above. On the procedure:
as §4

The target of another assay is human C1q (human, UniProt P02745 23-245; P02746 28-253; P02747 29-245). Briefly: cell-based or functional assay.
In assay [6] the target is T2, huTGFβ RIIFc (recombinant extracellular …). The assay is described as follows: SPR (Biacore), TGFβ RII-Fc extracellular domain immobilized at low density; Antibody A; KD. How it is done: as §2
For assay [7] the target is unchanged. Briefly: ELISA, huTGFβ RIIFc coated, antibody titrated; Antibody A; binding ELISA. On the procedure: as §3

T2 sequence (P37173 23-166): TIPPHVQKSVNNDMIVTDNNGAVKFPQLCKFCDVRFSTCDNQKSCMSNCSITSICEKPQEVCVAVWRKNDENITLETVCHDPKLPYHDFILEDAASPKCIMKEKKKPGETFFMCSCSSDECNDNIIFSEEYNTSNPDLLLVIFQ
T1 sequence (P37173 23-166): as above
human C1q, sequence (P02745 23-245 limits assumed, chain 1 of 3): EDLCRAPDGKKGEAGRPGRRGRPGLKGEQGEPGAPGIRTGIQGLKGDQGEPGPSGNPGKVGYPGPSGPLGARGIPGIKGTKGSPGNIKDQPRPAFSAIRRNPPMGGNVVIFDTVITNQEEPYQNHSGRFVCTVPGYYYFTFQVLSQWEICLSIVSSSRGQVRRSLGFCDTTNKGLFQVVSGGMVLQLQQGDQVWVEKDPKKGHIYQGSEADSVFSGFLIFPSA
human C1q, sequence (P02746 28-253 limits assumed, chain 2 of 3): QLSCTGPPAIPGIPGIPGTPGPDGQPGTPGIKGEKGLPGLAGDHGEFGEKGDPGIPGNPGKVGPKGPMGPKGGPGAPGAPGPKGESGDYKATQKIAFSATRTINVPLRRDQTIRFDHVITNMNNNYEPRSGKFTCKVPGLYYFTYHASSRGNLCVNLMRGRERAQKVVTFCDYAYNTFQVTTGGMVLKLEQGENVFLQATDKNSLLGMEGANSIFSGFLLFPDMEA
human C1q, sequence (P02747 29-245 limits assumed, chain 3 of 3): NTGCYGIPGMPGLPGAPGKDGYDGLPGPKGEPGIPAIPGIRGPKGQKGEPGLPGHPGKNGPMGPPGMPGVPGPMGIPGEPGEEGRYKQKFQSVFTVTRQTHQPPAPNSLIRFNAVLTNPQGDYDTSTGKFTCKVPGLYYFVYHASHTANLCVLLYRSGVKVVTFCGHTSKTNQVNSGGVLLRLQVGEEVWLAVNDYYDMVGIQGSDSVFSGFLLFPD
T5 sequence (P08637 17-208 F176V): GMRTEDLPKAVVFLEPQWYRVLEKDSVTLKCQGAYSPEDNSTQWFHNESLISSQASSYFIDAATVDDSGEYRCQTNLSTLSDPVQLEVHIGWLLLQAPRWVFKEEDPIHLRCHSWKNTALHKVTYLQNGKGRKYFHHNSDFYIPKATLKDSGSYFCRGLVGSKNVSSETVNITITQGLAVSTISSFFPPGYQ
T3 sequence (P12314 16-288): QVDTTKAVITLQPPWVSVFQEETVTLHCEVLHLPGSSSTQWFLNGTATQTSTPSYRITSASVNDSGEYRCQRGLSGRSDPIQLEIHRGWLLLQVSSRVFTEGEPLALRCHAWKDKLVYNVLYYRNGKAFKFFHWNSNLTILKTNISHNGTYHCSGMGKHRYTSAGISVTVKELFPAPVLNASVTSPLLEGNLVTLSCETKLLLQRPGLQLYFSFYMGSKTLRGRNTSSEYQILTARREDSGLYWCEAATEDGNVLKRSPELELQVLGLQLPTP

B1: LY3022859 (antibody, IgG1, V domains shown)
VH: QLQVQESGPGLVKPSETLSLTCTVSGGSISNSYFSWGWIRQPPGKGLEWIGSFYYGEKTYYNPSLKSRATISIDTSKSQFSLKLSSVTAADTAVYYCPRGPTMIRGVIDSWGQGTLVTVSS
VL: EIVLTQSPATLSLSPGERATLSCRASQSVRSYLAWYQQKPGQAPRLLIYDASNRATGIPARFSGSGSGTDFTLTISSLEPEDFAVYYCQQRSNWPPTFGQGTKVEIK
notes: the antibody is disclosed in WO 2010/053814; also called TGFβRII mAb LY3022859; anti-TGFβ RII antibody IgG1
A word on the IC50: it is the concentration that inhibits the measured activity by half. One may read the Kd as the free concentration of one partner at which half of the binding sites on the other are occupied at equilibrium, for simple one-to-one binding. One may read the EC50 as the concentration at which the effect is half-maximal. With B1, the half-maximal inhibitory concentration (IC50) worked out at 5.48 nM with TGFβ RII AP [1], 4.45 nM in the assay with TGFβ RII AP [2] and 4.41 nM in the assay with TGFβ RII AP [5]. The Kd in assay [3] stood at 0.0106 nM. Besides, the EC50 in [4] amounted to 0.306 nM.

B2: Antibody A (antibody, human IgG1, kappa)
heavy: QLQVQESGPGLVKPSETLSLTCTVSGGSISNSYFSWGWIRQPPGKGLEWIGSFYYGEKTYYNPSLKSRATISIDTSKSQFSLKLSSVTAADTAVYYCPRGPTMIRGVIDSWGQGTLVTVSSASTKGPSVFPLAPSSKSTSGGTAALGCLVKDYFPEPVTVSWNSGALTSGVHTFPAVLQSSGLYSLSSVVTVPSSSLGTQTYICNVNHKPSNTKVDKRVEPKSCDKTHTCPPCPAPEAEGAPSVFLFPPKPKDTLMISRTPEVTCVVVDVSHEDPEVKFNWYVDGVEVHNAKTKPREEQYNSTYRVVSVLTVLHQDWLNGKEYKCKVSNKALPSSIEKTISKAKGQPREPQVYTLPPSREEMTKNQVSLTCLVKGFYPSDIAVEWESNGQPENNYKTTPPVLDSDGSFFLYSKLTVDKSRWQQGNVFSCSVMHEALHNHYTQKSLSLSPGK
light: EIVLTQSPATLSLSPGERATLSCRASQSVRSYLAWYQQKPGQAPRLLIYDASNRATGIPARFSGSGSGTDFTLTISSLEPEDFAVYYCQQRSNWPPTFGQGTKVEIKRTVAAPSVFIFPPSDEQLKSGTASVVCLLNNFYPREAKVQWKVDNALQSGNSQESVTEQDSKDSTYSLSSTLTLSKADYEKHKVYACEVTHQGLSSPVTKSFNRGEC
notes: same variable regions as LY3022859; also called anti-TGFβ RII antibody IgG1 effector null
Regarding B2, the concentration for half-maximal inhibition (IC50) with TGFβ RII AP [1] was found to be 4.83 nM; with TGFβ RII AP [2], 4.4 nM; in the assay with TGFβ RII AP [5], 4.36 nM. Moreover, the EC50 with FcγR1 is over 2000 nM; with FcγR2a(H), over 2000 nM; with FcγR3a (V) it was over 2000 nM; in assay [7], 0.277 nM. Further, in the assay with human C1q, the “CDC activity EC50 (nM), BxPC3 target cells, human complement” value is over 200 nM. Further, the “CDC activity EC50 (nM), HEK293 target cells, human complement” value with human C1q was over 200 nM. The “CDC activity EC50 (nM), MDA-MB-231 target cells, human complement” value with human C1q was over 200 nM. The “CDC activity EC50 (nM), TGFRβII-HEK target cells, human complement” value with human C1q was over 200 nM. In assay [6], the dissociation constant (Kd) stood at 0.0222 nM.
